In patent publication US20120189541A1 (AbbVie / Abbott, published 2012):

Assays:
Recombinant Human IL-1β [1] = biological target: T1, Recombinant Human IL-1β (human, UniProt P01584 117-269); test: cell-based or functional assay
Recombinant Human IL-1β [2] = biological target: T1, Recombinant Human IL-1β; test: SPR (BIACORE), human antigen
Description: (§1) The BIACORE assay (Biacore, Inc, Piscataway, N.J.) determines the affinity of antibodies or DVD-Ig molecule with kinetic measurements of on-rate and off-rate constants. Binding of antibodies or DVD-Ig molecule to a target antigen (for example, a purified recombinant target antigen) is determined by surface plasmon resonance-based measurements with a Biacore® 1000 or 3000 instrument (Biacore® AB, Uppsala, Sweden) using running HBS-EP (10 mM HEPES [pH 7.4], 150 mM NaCl, 3 mM EDTA, and 0.005% surfactant P20) at 25° C. All chemicals are obtained from Biacore® AB (Uppsala, Sweden) or otherwise from a different source as described in the text. For example, approximately 5000 RU of goat anti-mouse IgG, (Fcγ), fragment specific polyclonal antibody (Pierce Biotechnology Inc, Rockford, Ill.) diluted in 10 mM sodium acetate (pH 4.5) is directly immobilized across a CM5 research grade biosensor chip using a standard amine coupling kit according to manufacturer's instructions and procedures at 25 μg/ml. Unreacted moieties on the biosensor surface are blocked with ethanolamine. Modified carboxymethyl dextran surface in flowcell 2 and 4 is used as a reaction surface. Unmodified carboxymethyl dextran without goat anti-mouse IgG in flow cell 1 and 3 is used as the reference surface. For kinetic analysis, rate equations derived from the 1:1 Langmuir binding model are fitted simultaneously to association and dissociation phases of all eight injections (using global fit analysis) with the use of Biaevaluation 4.0.1 software. Purified antibodies or DVD-Ig molecule are diluted in HEPES-buffered saline for capture across goat anti-mouse IgG specific reaction surfaces. Antibodies or DVD-Ig molecule to be captured as a ligand (25 μg/ml) are injected over reaction matrices at a flow rate of 5 μl/min. The association and dissociation rate constants, kₒₙ (M⁻¹s⁻¹) and koff (s⁻¹) are determined under a continuous flow rate of 25 μl/minute. Rate constants are derived by making kinetic binding measurements at different antigen concentrations ranging from 10-200 nM. The equilibrium dissociation constant (M) of the reaction between antibodies or DVD-Ig molecules and the target antigen is then calculated from the kinetic rate constants by the following formula: KD=koff/kₒₙ. Binding is recorded as a function of time and kinetic rate constants are calculated.

Recombinant Human IL-1α [3] = biological target: T2, Recombinant Human IL-1α (human, UniProt P01583 113-271); test: SPR (BIACORE), human antigen
T2 construct: Bought recombinant protein; Biotinylated in the capture ELISA; also called hIL-1α; IL-1 alpha
T2 sequence (looked up): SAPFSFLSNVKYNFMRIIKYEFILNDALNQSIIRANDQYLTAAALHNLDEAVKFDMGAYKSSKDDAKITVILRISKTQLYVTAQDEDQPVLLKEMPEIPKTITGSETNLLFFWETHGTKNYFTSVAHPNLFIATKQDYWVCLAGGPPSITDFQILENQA
Description: as §1

Cynomolgus IL-1α [4] = biological target: T3, Cynomolgus IL-1α (cynomolgus, UniProt P79340 113-271, limits assumed); test: cell-based or functional assay
T3 sequence (looked up): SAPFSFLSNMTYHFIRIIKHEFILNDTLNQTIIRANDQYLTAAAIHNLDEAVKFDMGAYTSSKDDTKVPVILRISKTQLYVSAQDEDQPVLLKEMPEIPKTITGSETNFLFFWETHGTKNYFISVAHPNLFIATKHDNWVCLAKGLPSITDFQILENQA

Recombinant Human IL-1α [5] = biological target: T2, Recombinant Human IL-1α; test: cell-based or functional assay
Cynomolgus IL-1β = biological target: T4, Cynomolgus IL-1β (cynomolgus, UniProt P79182 117-268, limits assumed); test: cell-based or functional assay
T4 sequence (looked up): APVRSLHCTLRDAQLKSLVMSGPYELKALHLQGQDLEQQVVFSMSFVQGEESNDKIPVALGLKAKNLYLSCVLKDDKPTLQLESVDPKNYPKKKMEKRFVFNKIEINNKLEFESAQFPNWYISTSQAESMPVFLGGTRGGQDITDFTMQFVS

Recombinant Human IL-1α [6] = biological target: T2, Recombinant Human IL-1α; test: capture ELISA: antibody captured by anti-human Fc, biotinylated antigen titrated
Description: (§2) Plates were washed five times in washing buffer (PBS containing 0.05% Tween 20) and blocked for 1 hour at 25° C. with 200 μl per well superblock blocking buffer (Thermo scientific, #37515). Blocking buffer was removed, and 2 μg/ml of each antibody or DVD-Ig molecule in PBS containing 10% superblock, 0.5% Tween-20 was added to the wells at 100 μl per well and incubated at 25° C. for 1 hour. The wells were washed five times in 1×PBST, and 1 μg/ml biotinylated antigen was titrated at 1:6 serial dilutions (for a range of μg to pg in PBS containing 10% superblock, 0.05% tween 20). Each dilution of antigen was then added to the plates and incubated for 1 hour at 25° C. The wells were washed five times in 1×PBST and incubated for 1 hour at 25° C. with polyHRP streptavidin (KPL #474-3000, Gaithersburg, Md.). The wells were washed five times in 1×PBST, and 100 μl of ULTRA-TMB ELISA (Pierce, Rockford, Ill.) were added per well. Following color development the reaction was stopped with 1N HCL and absorbance at 450 nm is measured.

Cynomolgus IL-1α [7] = biological target: T3, Cynomolgus IL-1α; test: SPR (BIACORE), cynomolgus antigen
Recombinant Human IL-1β [8] = biological target: T1, Recombinant Human IL-1β; test: capture ELISA: antibody captured by anti-human Fc, biotinylated antigen titrated
Description: as §2

| Binder | Human IL-1β Neutralization Assay EC50 (IL-1 induced hIL-8, MRC-5 cells) (Recombinant Human IL-1β [1]) [nM] | Kd (Recombinant Human IL-1β [2]) [nM] | koff (Recombinant Human IL-1β [2]) [s⁻¹] | kon (Recombinant Human IL-1β [2]) [M⁻¹ s⁻¹] | Kd (Recombinant Human IL-1α [3]) [nM] | koff (Recombinant Human IL-1α [3]) [s⁻¹] | kon (Recombinant Human IL-1α [3]) [M⁻¹ s⁻¹] | Cyno IL-1α Neutralization Assay EC50 (IL-1 induced hIL-8, MRC-5 cells) (Cynomolgus IL-1α [4]) [nM] | Human IL-1α Neutralization Assay EC50 (IL-1 induced hIL-8, MRC-5 cells) (Recombinant Human IL-1α [5]) [nM] | Cyno IL-1β Neutralization Assay EC50 (IL-1 induced hIL-8, MRC-5 cells) (Cynomolgus IL-1β) [nM] | EC50 (Recombinant Human IL-1α [6]) [nM] | Kd (Cynomolgus IL-1α [7]) [nM] | koff (Cynomolgus IL-1α [7]) [s⁻¹] | kon (Cynomolgus IL-1α [7]) [M⁻¹ s⁻¹] | EC50 (Recombinant Human IL-1β [8]) [nM] |
| --- | --- | --- | --- | --- | --- | --- | --- | --- | --- | --- | --- | --- | --- | --- | --- |
| E26.13-SS-3D12.10/15 (bispecific antibody, human IgG1, kappa, L234A L235A, DVD-Ig, outer (N-terminal) domain anti-IL-1β, inner domain anti-IL-1α, short linkers) heavy: not shown light: DIQMTQSPSSLSASVGDRVTITCRASGNIHNYLTWYQQTPGKAPKLLIYNAKTLADGVPSRFSGSGSGTDYTFTISSLQPEDIATYYCQHFWSIPYTFGQGTKLQITRTVAAPDIQMTQSPSSLSASVGDRVTITCRASQDISNMLNWYQQKPGKTPKLLIYYTSRLYPGVPSRFSGSGSGTDYTFTISSLQPEDIATYFCQQGKTLPYAFGQGTKLEIKRTVAAPSVFIFPPSDEQLKSGTASVVCLLNNFYPREAKVQWKVDNALQSGNSQESVTEQDSKDSTYSLSSTLTLSKADYEKHKVYACEVTHQGLSSPVTKSFNRGEC | 0.0099 | 0.0161 | 2.65e-05 | 1.66e+06 | 0.569 | 3.25e-05 | 56900 | 0.0626 | 0.0538 | 0.0056 | – | – | – | – | – |
| E26.35-SS-3D12.10/15 (bispecific antibody, human IgG1, kappa, L234A L235A, DVD-Ig, outer domain anti-IL-1β, inner domain anti-IL-1α, short linkers) heavy: not shown light: DIQMTQSPSSLSASVGDRVTITCRASGNIHNYLTWYQQTPGKAPKLLIYNAKTLADGVPSRFSGSGSGTDYTFTISSLQPEDIATYYCQHFWSIPYTFGQGTKLQITRTVAAPDIQMTQSPSSLSASVGDRVTITCRASQDISNMLNWYQQKPGKTPKLLIYYTSRLYPGVPSRFSGSGSGTDYTFTISSLQPEDIATYFCQQGKTLPYAFGQGTKLEIKRTVAAPSVFIFPPSDEQLKSGTASVVCLLNNFYPREAKVQWKVDNALQSGNSQESVTEQDSKDSTYSLSSTLTLSKADYEKHKVYACEVTHQGLSSPVTKSFNRGEC | 0.002 | 0.00611 | 7.85e-06 | 1.28e+06 | 0.403 | 2.34e-05 | 58100 | 0.081 | 0.0479 | 0.0121 | – | – | – | – | – |
| 3D12.10/15 (antibody, human IgG1, kappa, L234A L235A, V domains shown, Parent anti-IL-1α antibody; also called 3D12 10/15VH; 3D12 10/15VL) VH: EVQLVQSGAEVKKPGVSVKVSCKASGYTFTTYGMHWVRQAPGQGLEWMGWINTYTGESTYADDFQGRVTFTLDTSTSTAYMELSSLRSEDTAVYFCARGIYYYGSSYAMNYWGQGTTVTVSS VL: DIQMTQSPSSLSASVGDRVTITCRASQDISNMLNWYQQKPGKTPKLLIYYTSRLYPGVPSRFSGSGSGTDYTFTISSLQPEDIATYFCQQGKTLPYAFGQGTKLEIKR | – | – | – | – | 0.115 | 4.1e-05 | 355000 | 0.0126 | 0.0057 | – | 0.007 | 0.0578 | 2.25e-05 | 389000 | – |
| 3D12r16 (antibody, human IgG1, kappa, L234A L235A, V domains shown, Parent anti-IL-1α antibody; also called 3D12r16VH; 3D12r16VL) VH: EVQLVQSGAEVKKPGASVKVSCKASGYTFKYYGMNWVRQAPGQGLERMGWINTYTGQSTYADDFKGRVTFTLDTSTSTAYMELSSLRSEDTAVYYCARDIYYYGSDFAMDYWGQGTTVTVSS VL: DIQMTQSPSSLSASVGDRVTITCRASQDISNMLNWYQQKPGKAPKLLIYYTSRLKPGVPSRFSGSGSGTDYTFTISSLQPEDIATYFCQQGKTAPYTFGQGTKLEIKR | – | – | – | – | 0.031 | 2.77e-05 | 900000 | 0.0008 | 0.00056 | – | 0.072 | – | – | – | – |
| 3D12.8 (antibody, human IgG1, kappa, L234A L235A, V domains shown, Parent anti-IL-1α antibody; also called 3D12.8VH; 3D12.8VL) VH: EIQLVQSGSELKKPGASVKVSCKASGYTFTNYGMNWVRQAPGQDLERMAWINTYTGESTYADDFKGRFVFSLDTSVSTAYLQISSLKAEDTAVYFCARGIYYYGSSYAMDYWGQGTTVTVSS VL: DIQMTQSPSSLSASVGDRVTITCRASQDISNCLNWYQQKPGKTPKLLIYYTSRLHSGVPSRFSGSGSGTDYTFTISSLQPEDIATYFCQQGKTLPYAFGQGTKLEIKR | – | – | – | – | 1.35 | 0.00274 | 2.04e+06 | – | – | – | 0.028 | – | – | – | – |
| 3D12.16 (antibody, human IgG1, kappa, L234A L235A, V domains shown, Parent anti-IL-1α antibody; also called 3D12.16VH; 3D12.16VL) VH: EIQLVQSGAEVKKPGASVKVSCKASGYTFTNYGMNWVRQAPGQDLERMAWINTYTGESTYADDFKGRFTFTLDTSTSTAYMELSSLRSEDTAVYFCARGIYYYGSSYAMDYWGQGTTVTVSS VL: DIQMTQSPSSLSASVGDRVTITCRASQDISNCLNWYQQKPGKTPKLLIYYTSRLHSGVPSRFSGSGSGTDYTFTISSLQPEDIATYFCQQGKTLPYAFGQGTKLEIKR | – | – | – | – | 2.09 | 0.00253 | 1.21e+06 | – | – | – | 0.01 | – | – | – | – |
| 1B12.1 (antibody, human IgG1, kappa, L234A L235A, V domains shown, Parent anti-IL-1β antibody; also called 1B12.1VH; 1B12.1VL) VH: EVQLQESGPGLVKPSETLSLTCTVSGFSLSDYGVSWIRQPPGKGLEWLGLIWGGGDTYYNSPLKSRLTISKDNSKSQVSLKLSSVTAADTAVYYCAKQRTLWGYDLYGMDYWGQGTLVTVSS VL: DTQVTQSPSSLSASVGDRVTITCITSTDIDVDMNWYQQKPGKPPKLLISQGNTLRPGVPSRFSSSGSGTDFTFTISSLQPEDFATYYCLQSDNLPLTFGQGTKLEIKR | 0.15 | 0.186 | 0.00103 | 5.55e+06 | – | – | – | – | – | – | – | – | – | – | 0.0399 |
| 1B12.3 (antibody, human IgG1, kappa, L234A L235A, V domains shown, Parent anti-IL-1β antibody; also called 1B12.3VH; 1B12.3VL) VH: EVQLQESGPGLVKPSETLSLTCTVSGFSLSDYGVSWIRQPPGKGLEWLGLIWGGGDTYYNSPLKSRLTISKDNSKSQVSLKLSSVTAADTAVYYCAKQRTLWGYDLYGMDYWGQGTLVTVSS VL: DTVVTQSPAFLSVTPGEKVTITCITSTDIDVDMNWYQQKPDQPPKLLISQGNTLRPGVPSRFSSSGSGTDFTFTISSLEAEDAATYYCLQSDNLPLTFGQGTKLEIKR | 0.3 | 0.206 | 0.00118 | 5.73e+06 | – | – | – | – | – | – | – | – | – | – | 0.0438 |
| 1B12.6 (antibody, human IgG1, kappa, L234A L235A, V domains shown, Parent anti-IL-1β antibody; also called 1B12.6VH; 1B12.6VL) VH: EVQLVESGGGLVQPGGSLRLSCAVSGFTLSDYGVSWIRQAPGKGLEWLGLIWGGGDTYYNSPLKSRLTISKDNSKSTVYLQMNSLRAEDTAVYYCAKQRTLWGYDLYGMDYWGQGTLVTVSS VL: ETTVTQSPSSLSASVGDRVTITCITSTDIDVDMNWYQQKPGKPPKLLISQGNTLRPGVPSRFSSSGSGTDFTFTISSLQPEDFATYYCLQSDNLPLTFGQGTKLEIKR | 0.38 | 0.202 | 0.00125 | 6.2e+06 | – | – | – | – | – | – | – | – | – | – | 0.0459 |
